Results as given in US20260217793A1 (Chugai, published 2026).
Numbering of substitutions follows the chain as printed. Each block holds one binder with its values, some of them ahead of it.

Key:
Assay in all cases: SPR
[1] = target: human FcγRIIIa type V (Val158) extracellular domain with C-terminal His tag (human, UniProt P08637 17-208)
[2] = target: T1, human FcγRIIa type R (Arg131) extracellular domain with C-terminal His tag (human, UniProt P12318 34-217)
T1 sequence (looked up): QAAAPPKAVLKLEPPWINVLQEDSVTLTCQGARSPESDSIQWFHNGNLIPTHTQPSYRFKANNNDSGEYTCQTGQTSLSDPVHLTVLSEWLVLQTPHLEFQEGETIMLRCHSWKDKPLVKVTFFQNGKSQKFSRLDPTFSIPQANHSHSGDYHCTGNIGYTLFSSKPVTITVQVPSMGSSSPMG

[3] = target: T2, human FcγRIIb extracellular domain with C-terminal His tag (human, UniProt P31994 43-217)
T2 sequence (looked up): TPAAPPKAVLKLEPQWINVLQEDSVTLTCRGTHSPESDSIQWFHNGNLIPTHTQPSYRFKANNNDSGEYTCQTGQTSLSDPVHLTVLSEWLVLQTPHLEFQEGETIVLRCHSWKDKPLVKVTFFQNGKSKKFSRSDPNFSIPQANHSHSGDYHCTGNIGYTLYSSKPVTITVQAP

Chain of human FcγRIIIa type V (Val158) extracellular domain with C-terminal His tag (P08637 17-208 F176V): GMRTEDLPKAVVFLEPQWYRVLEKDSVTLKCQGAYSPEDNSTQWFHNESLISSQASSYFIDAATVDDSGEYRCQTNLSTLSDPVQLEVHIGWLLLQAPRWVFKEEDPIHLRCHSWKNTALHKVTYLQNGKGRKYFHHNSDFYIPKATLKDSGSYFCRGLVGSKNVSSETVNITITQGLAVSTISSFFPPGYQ

Kd [1]: 30 µM
B3: IL6R-BP555/IL6R-L (antibody, human IgG1, kappa)
heavy: QVQLQESGPGLVKPSETLSLTCAVSGHSISHDHAWSWVRQPPGEGLEWIGFISYSGITNYNPSLQGRVTISRDNSKNTLYLQMNSLRAEDTAVYYCARSLARTTAMDYWGEGTLVTVSSASTKGPSVFPLAPSSKSTSGGTAALGCLVKDYFPEPVTVSWNSGALTSGVHTFPAVLQSSGLYSLSSVVTVPSSSLGTQTYICNVNHKPSNTKVDKKVEPKSCDKTHTCPPCPAPELLGDDSVFLFPPKPKDTLMISRTPEVTCVVIDVAEEDGDVKFNWYVDGVEVHNAKTKPREEQDNSTYRVVSVLTVLHQDWLNGKEYKCKVSNKALPRPIEKTISKAKGQPREPQVYTLPPSRDELTKNQVSLTCLVKGFYPSDIAVEWESNGQPENNYKTTPPVLDSDGSFFLYSKLTVDKSRWQQGNVFSCSVMHEALHNHYTQESLSLSP
light: not shown

Kd [1]: 25 µM
B5: IL6R-BP534/IL6R-L (antibody, human IgG1, kappa)
heavy: B3 heavy with E235D, A269S, D274E, P398L
light: not shown

Kd [1]: 24 µM
B6: IL6R-BP554/IL6R-L (antibody, human IgG1, kappa)
heavy: B3 heavy with D298Y
light: not shown

Kd [1]: 60 µM
B8: IL6R-BP556/IL6R-L (antibody, human IgG1, kappa)
heavy: B3 heavy with A269G, D274E
light: not shown

Kd [1]: 33 µM
B12: IL6R-BP535/IL6R-L (antibody, human IgG1, kappa)
heavy: B3 heavy with E235D, A269G, D274E, A329G, P398M
light: not shown

Kd [1]: 20 µM
B13: IL6R-BP553/IL6R-L (antibody, human IgG1, kappa)
heavy: B3 heavy with E235D, D298Y
light: not shown

Kd [1]: 36 µM
B14: IL6R-BP537/IL6R-L (antibody, human IgG1, kappa)
heavy: B3 heavy with A269G, D274E, D298Y
light: not shown

Kd [1]: 37 µM
B15: IL6R-BP561/IL6R-L (antibody, human IgG1, kappa)
heavy: B3 heavy with E235D, I266V, A269S, E270D
light: not shown

Second part, the binder before the results:

B1: IL6R-BP552/IL6R-L (antibody, human IgG1, kappa)
heavy: B3 heavy with E235D
light: not shown
Kd [1]: 30 µM

B2: IL6R-BP503/IL6R-L (antibody, human IgG1, kappa)
heavy: B3 heavy with E235D, D274E, A329G, P398M
light: not shown
KD (IIaR) of parent polypeptide/KD (IIaR) of altered polypeptide [2]: 19.4
KD (IIb) of parent polypeptide/KD (IIb) of altered polypeptide [3]: 1810

B4: IL6R-BP531/IL6R-L (antibody, human IgG1, kappa)
heavy: B3 heavy with E235D, A269G, D274E, P398M
light: not shown
Kd [1]: 27 µM

B7: IL6R-BP509/IL6R-L (antibody, human IgG1, kappa)
heavy: B3 heavy with E235D, R332A
light: not shown
KD (IIaR) of parent polypeptide/KD (IIaR) of altered polypeptide [2]: 2.1
KD (IIb) of parent polypeptide/KD (IIb) of altered polypeptide [3]: 174

B9: IL6R-BP511/IL6R-L (antibody, human IgG1, kappa)
heavy: B3 heavy with D274P
light: not shown
KD (IIaR) of parent polypeptide/KD (IIaR) of altered polypeptide [2]: 6.3
KD (IIb) of parent polypeptide/KD (IIb) of altered polypeptide [3]: 891

B10: IL6R-BP504/IL6R-L (antibody, human IgG1, kappa)
heavy: B3 heavy with E235D, D274P, D298Y, R332A
light: not shown
KD (IIaR) of parent polypeptide/KD (IIaR) of altered polypeptide [2]: 2.4
KD (IIb) of parent polypeptide/KD (IIb) of altered polypeptide [3]: 128

B11: IL6R-BP508/IL6R-L (antibody, human IgG1, kappa)
heavy: B3 heavy with E235D, D274P, R332A
light: not shown
KD (IIaR) of parent polypeptide/KD (IIaR) of altered polypeptide [2]: 2
KD (IIb) of parent polypeptide/KD (IIb) of altered polypeptide [3]: 149

B16: IL6R-BP502/IL6R-L (antibody, human IgG1, kappa)
heavy: B3 heavy with E235D, D274E, A329G
light: not shown
KD (IIaR) of parent polypeptide/KD (IIaR) of altered polypeptide [2]: 10.1
KD (IIb) of parent polypeptide/KD (IIb) of altered polypeptide [3]: 840

B17: IL6R-BP505/IL6R-L (antibody, human IgG1, kappa)
heavy: B3 heavy with E235D, D298Y, R332A
light: not shown
KD (IIaR) of parent polypeptide/KD (IIaR) of altered polypeptide [2]: 2.6
KD (IIb) of parent polypeptide/KD (IIb) of altered polypeptide [3]: 145

B18: IL6R-BP532/IL6R-L (antibody, human IgG1, kappa)
heavy: B3 heavy with E235D, A269S, D274E, P398M
light: not shown
Kd [1]: 26 µM
